Where a chain is given by its changes, count along the chain named.
Tests used:
[1] = molecular target: WRN K577M (human, UniProt Q14191 1-1432, K577M); assay: EMSA; similar to wild type; EMSA: 40 mM Tris-HCl pH 8.0, 4 mM MgCl2, 5 mM DTT, 1 mM ATPgS, 0.1 ug BSA in 10 ul, 4 C, 20 min; +10 mM KCl for quadruplexes; 4% gel, 0.5x Tris-glycine pH 8.3; settings: protein: recombinant; tags: His6; label: 5'-32P; G4 dimer of 2 strands, described as antiparallel
[2] = molecular target: T1, WRN (human, UniProt Q14191 1-1432); assay: EMSA; ATPgS, 4 mM Mg2+, 10 mM KCl; EMSA: 40 mM Tris-HCl pH 8.0, 4 mM MgCl2, 5 mM DTT, 1 mM ATPgS, 0.1 ug BSA in 10 ul, 4 C, 20 min; +10 mM KCl for quadruplexes; 4% gel, 0.5x Tris-glycine pH 8.3; settings: protein: recombinant, tags: His6, label: 5'-32P
T1 sequence (Q14191 whole entry): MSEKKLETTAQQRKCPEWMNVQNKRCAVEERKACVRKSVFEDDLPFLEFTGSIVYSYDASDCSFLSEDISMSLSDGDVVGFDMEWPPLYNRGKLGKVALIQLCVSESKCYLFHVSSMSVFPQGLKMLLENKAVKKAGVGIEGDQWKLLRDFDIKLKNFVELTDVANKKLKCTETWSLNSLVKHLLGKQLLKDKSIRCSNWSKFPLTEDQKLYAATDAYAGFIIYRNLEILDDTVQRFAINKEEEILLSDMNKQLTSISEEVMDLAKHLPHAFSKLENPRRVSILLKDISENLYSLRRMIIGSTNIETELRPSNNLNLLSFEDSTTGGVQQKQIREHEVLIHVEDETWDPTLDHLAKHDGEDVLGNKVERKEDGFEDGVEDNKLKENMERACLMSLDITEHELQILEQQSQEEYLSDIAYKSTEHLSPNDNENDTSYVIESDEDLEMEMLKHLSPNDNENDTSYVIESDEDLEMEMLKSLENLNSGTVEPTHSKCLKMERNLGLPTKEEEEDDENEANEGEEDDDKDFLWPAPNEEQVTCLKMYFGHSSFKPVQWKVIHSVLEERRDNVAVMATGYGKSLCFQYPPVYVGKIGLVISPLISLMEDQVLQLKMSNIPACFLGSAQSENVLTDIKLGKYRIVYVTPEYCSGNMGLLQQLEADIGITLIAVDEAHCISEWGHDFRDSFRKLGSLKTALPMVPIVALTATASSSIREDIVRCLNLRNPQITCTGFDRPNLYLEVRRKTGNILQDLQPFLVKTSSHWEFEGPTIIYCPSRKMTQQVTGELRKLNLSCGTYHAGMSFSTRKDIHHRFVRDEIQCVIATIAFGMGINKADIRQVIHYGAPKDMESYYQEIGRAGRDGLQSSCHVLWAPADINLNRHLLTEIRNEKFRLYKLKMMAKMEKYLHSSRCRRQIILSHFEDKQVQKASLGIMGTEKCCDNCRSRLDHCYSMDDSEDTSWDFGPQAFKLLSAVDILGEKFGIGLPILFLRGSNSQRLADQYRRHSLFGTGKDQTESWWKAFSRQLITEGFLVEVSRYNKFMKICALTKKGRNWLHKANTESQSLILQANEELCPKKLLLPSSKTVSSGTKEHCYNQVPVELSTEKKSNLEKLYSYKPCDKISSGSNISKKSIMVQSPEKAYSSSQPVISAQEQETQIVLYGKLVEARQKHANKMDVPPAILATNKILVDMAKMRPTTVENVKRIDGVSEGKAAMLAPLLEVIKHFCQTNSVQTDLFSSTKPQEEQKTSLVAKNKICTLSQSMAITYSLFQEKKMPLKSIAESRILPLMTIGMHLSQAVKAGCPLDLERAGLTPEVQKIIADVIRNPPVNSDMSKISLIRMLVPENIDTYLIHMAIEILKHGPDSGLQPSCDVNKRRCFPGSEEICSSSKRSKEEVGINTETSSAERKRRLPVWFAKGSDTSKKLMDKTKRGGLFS

[3] = molecular target: T1, WRN; assay: EMSA; ATPgS, 4 mM Mg2+; EMSA: 40 mM Tris-HCl pH 8.0, 4 mM MgCl2, 5 mM DTT, 1 mM ATPgS, 0.1 ug BSA in 10 ul, 4 C, 20 min; +10 mM KCl for quadruplexes; 4% gel, 0.5x Tris-glycine pH 8.3; settings: protein: recombinant, tags: His6
[4] = molecular target: T1, WRN; assay: EMSA; ATPgS, 10 mM KCl; tight, similar to G'2 TeR43; EMSA: 40 mM Tris-HCl pH 8.0, 4 mM MgCl2, 5 mM DTT, 1 mM ATPgS, 0.1 ug BSA in 10 ul, 4 C, 20 min; +10 mM KCl for quadruplexes; 4% gel, 0.5x Tris-glycine pH 8.3; settings: protein: recombinant; tags: His6; label: 5'-32P; G4 dimer of 2 strands, described as antiparallel
[5] = molecular target: BLM (UniProt P54132 1-1417); assay: EMSA; ATPgS, 4 mM Mg2+, 10 mM KCl; EMSA: 40 mM Tris-HCl pH 8.0, 4 mM MgCl2, 5 mM DTT, 1 mM ATPgS, 0.1 ug BSA in 10 ul, 4 C, 20 min; +10 mM KCl for quadruplexes; 4% gel, 0.5x Tris-glycine pH 8.3; settings: protein: recombinant; tags: C-terminal FLAG; label: 5'-32P; G4 tetramer of 4 parallel strands
BLM, sequence (P54132 whole entry): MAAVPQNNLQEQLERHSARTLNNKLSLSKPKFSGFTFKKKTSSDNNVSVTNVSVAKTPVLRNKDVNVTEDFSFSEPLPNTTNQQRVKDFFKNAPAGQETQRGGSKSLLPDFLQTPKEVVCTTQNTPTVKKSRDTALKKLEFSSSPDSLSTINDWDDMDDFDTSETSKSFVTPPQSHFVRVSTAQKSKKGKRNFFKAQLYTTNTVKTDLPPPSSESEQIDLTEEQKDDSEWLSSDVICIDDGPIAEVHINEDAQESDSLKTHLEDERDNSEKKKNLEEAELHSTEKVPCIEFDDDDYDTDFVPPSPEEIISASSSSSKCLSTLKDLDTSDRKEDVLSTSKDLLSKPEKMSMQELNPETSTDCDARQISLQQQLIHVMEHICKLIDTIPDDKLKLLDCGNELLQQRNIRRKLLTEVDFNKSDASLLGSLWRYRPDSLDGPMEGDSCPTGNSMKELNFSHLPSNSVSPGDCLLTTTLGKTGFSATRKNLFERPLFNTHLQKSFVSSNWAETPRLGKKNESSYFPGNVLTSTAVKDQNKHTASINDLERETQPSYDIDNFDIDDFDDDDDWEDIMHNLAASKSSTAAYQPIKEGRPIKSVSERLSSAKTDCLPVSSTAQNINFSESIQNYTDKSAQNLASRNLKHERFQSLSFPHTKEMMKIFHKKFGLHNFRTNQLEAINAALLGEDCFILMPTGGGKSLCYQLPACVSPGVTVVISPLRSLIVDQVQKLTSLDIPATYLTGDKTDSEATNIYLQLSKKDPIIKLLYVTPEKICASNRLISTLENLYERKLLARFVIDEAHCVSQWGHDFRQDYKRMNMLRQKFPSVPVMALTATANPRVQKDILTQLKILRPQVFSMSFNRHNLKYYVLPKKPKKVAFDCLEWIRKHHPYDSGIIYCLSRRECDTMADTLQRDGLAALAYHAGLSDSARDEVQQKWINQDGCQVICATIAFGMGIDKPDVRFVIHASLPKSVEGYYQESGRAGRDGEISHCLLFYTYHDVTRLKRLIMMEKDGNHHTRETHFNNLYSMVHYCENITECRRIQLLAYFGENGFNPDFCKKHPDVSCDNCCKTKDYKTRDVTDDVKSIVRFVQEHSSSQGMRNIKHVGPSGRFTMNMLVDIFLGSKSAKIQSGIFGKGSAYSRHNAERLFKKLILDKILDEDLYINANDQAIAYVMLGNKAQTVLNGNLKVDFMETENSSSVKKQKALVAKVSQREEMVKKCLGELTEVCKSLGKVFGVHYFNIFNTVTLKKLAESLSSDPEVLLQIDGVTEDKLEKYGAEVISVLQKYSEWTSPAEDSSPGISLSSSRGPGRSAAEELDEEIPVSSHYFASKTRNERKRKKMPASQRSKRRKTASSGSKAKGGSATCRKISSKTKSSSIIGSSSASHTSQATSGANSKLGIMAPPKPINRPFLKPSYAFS

WRN K577M, sequence (Q14191 whole entry K577M): as the sequence (Q14191 whole entry) above, with K577M counted along it

**Q.** Does GGTTAGGGTTAGGGTTAGGGTTAGGGTTAGTTAGGGTTAGGGT (structured_DNA) [G'2 TeR43 quadruplex] bind [1]?
**A.** binds

**Q.** And the Kd ([2]; G4 dimer of 2 strands, described as antiparallel)?
**A.** 0.26 ± 0.08 nM

B1: 20/46 partial duplex (dsDNA)
DNA 1: CGCTAGCAATATTCTGCAGC
DNA 2: GCGCGGAAGCTTGGCTGCAGAATATTGCTAGCGGGAAATCGGCGCG
modifications: 3'-terminal inverted dC on the 20-mer
**Q.** With B1 as the binder, how does the Kd ([3]; label: 5'-32P on strand 1, 20 bp, 13 nt 5' and 13 nt 3' tails on strand 2) read?
**A.** 2.3 ± 1.3 nM

B2: Bubble DNA (dsDNA)
DNA 1: B1 DNA 2 with A38T
DNA 2: CGCGCCGAATTCCCGCTAGTGGCGCCTTGCAGCCAAGCTTCCGCGC
**Q.** B2 was tested. Which Kd ([3]; label: 5'-32P on strand 1, blunt, 8 nt non-complementary central bubble) did it give?
**A.** 24.7 ± 3.5 nM

B3: dsTeR63 partial duplex (dsDNA)
DNA 1: GGTTAGGGTTAGGGTTAGGGTTAGGGTTAGTTAGGGTTAGGGTTAGGGTTAGGGGCGATTGAT
DNA 2: ATCAATCGCCCCTAACCC
**Q.** Which Kd ([3]; label: 5'-32P on strand 2, 18 bp, 45 nt 5' tail on strand 1) does the source give for B3 here?
**A.** 7.6 ± 2.9 nM

B4: G'2 TeR63 quadruplex (structured_DNA)
DNA: B3 DNA 1
**Q.** Does B4 bind [4]?
**A.** binds

**Q.** What does the source list for TGGACCAGACCTAGCAGCTATGGGGGAGCTGGGGAAGGTGGGAATGTGA (structured_DNA) [G4 IgG quadruplex]?
**A.** Kd ([2]; G4 tetramer of 4 parallel strands): 3.4 ± 0.4 nM; Kd [5]: 7 ± 2.9 nM

B5: Splayed arm DNA (dsDNA)
DNA 1: CGCGCCGAATTCCCGCTAGCAATATTCTGCAGCCAAGCTTCCGCGC
DNA 2: GGCGAACTGCCATTCGCACTTACACTGCTAGCGGGAATTCGGCGCG
**Q.** With B5 as the binder, how does the Kd ([3]; label: 5'-32P on strand 1, fork) read?
**A.** 6.2 ± 1.3 nM

Source: article PMC3260238, “The Werner Syndrome Protein Is Distinguished from the Bloom Syndrome Protein by Its Capacity to Tightly Bind Diverse DNA Structures”
